The record followed here is patent US20150368661A1.

The experiment has as its target recombinant hemagglutinin (HA) (A/New Caledonia/20/99; Protein Sciences) (influenza A virus A/New Caledonia/20/99 (H1N1)).

pKd: −log10 of the molar value.

Turning to “plant-produced anti-influenza bnMAb CR6261 IgG1 (expressed in N. benthamiana) (antibody)”, the negative logarithm of the Kd (pKd) is 10.26.

A word on the pKd: it is −log10 of the Kd, conventionally taken in molar units.
